B1: GST-SERCA-CD3: GST fusion of the CD3 from rat heart SERCA 2a (protein)
chain: GTRRMAKKNAIVRSLPSVETLGCTSVICSDKTGTLTTNQMSVCRMFILDKVEGDTCSLNEFTITGSTYAPIGEVQKDDKPVKCHQYDGLVELATICALCNDSALDYNEAKGVYEKVGEATETALTCLVEKMNVFDTELKGLSKIERANACNSVIKQLMKKEFTLEFSRDRKSMSVYCTPNKPSRTSMSKMFVKGAPEGVIDRCTHIRVGSTKVPMTPGVKQKIMSVIREWGSGSDTLRCLALATHDNPLRREEMHLEDSANFIKYETNLTFVGCVGMLDPPRIEVASSVKLCRQAGIRVIMITGDNKGTAVAICRRIGIFGQDEDVTSKAFTGREFDELSPSAQRDACLNARCFARVEPSHKSKIVEFLQSFDEITAMTGDGVNDAPALKKSEIGIAMGSGTAVAKTASEMVLADDNFSTIVAAVEEGRAIYNNMKQFIRYLISSNV
B2: GST-kinase: GST fusion of Src kinase domain (protein)
chain: QTQGLAKDAWEIPRESLRLEVKLGQGCFGEVWMGTWNGTTRVAIKTLKPGTMSPEAFLQEAQVMKKLRHEKLVQLYAVVSEEPIYIVTEYMSKGSLLDFLKGEMGKYLRLPQLVDMAAQIASGMAYVERMNYVHRDLRAANILVGENLVCKVADFGLARLIEDNEYTARQGAKFPIKWTAPEAALYGRFTIKSDVWSFGILLTELTTKGRVPYPGMVNREVLDQVERGYRMPCPPECPESLHDLMCQCWRKDPEERPTFEYLQAFLEDYFTSTEPQYQPGENL
modifications: left off: a dimerising Fc or GST
notes: GST fusion of Src kinase domain
B3: GST-SH2: GST fusion of Src SH2 domain (protein)
chain: WYFGKITRRESERLLLNPENPRGTFLVRESETTKGAYCLSVSDFDNAKGLNVKHYKIRKLDSGGFYITSRTQFSSLQQLVAYYSKHADGLCHRLTNVC
modifications: left off: a dimerising Fc or GST
notes: GST fusion of Src SH2 domain

Legend:
Src = target: T1, Src (Sus scrofa, UniProt K7GM45); test: GST-CD3 pulldown of Src from LLC-PK1 cell lysates; format: binding, pig; settings: 1 mg LLC-PK1 cell lysates
T1 construct: endogenous in cells; host or cells: LLC-PK1 (pig kidney)
Description: FIG. 4C. A Western blot showing that Src was pulled down by GST-CD3 of Na+/K+-ATPase (Na/K) and H+/K+-ATPase (H/K), but not SERCA from 1 mg LLC-PK1 cell lysates.
Cells were lysed in RIPA buffer containing 1% Nonidet P40, 0.25% sodium deoxycholate, 150 mM NaCl, 1 mM EDTA, 1 mM phenylmethylsulfonyl fluoride, 1 mM sodium orthovanadate, 1 mM NaF, 10 μg/ml aprotinin, 10 μg/mlleupeptin, and 50 mM Tris-HCl (pH 7.4). Cell lysates were cleared by centrifugation at 16,000×g for […], and the supernatants (1 mg) were either immunoprecipitated with anti-α1 antibody or incubated with different GST-fusion proteins. The complexes were then pulled down by either protein G agarose or glutathione beads (Ma et al., 2000; Haas et al., 2002) and analyzed by Western blot.

purified Na+/K+-ATPase = target: T2, purified Na+/K+-ATPase (Sus scrofa, UniProt P05024); test: In vitro GST pulldown binding assay with purified Na+/K+-ATPase; parameters: species or system pig; settings: 2 μg purified Na+/K+-ATPase per assay
T2 construct: Na+/K+-ATPase was purified from pig kidney outer medulla using the Jorgensen method; from tissue; host or cells: pig kidney outer medulla
Description: The purified Na+/K+-ATPase was solubilized in 1% Triton X-100 PBS and centrifuged at 100,000×g for 30 min. The supernatant was collected for the binding assay. GST-fusion proteins (5 μg) were conjugated on glutathione beads and incubated with the solubilized Na+/K+-ATPase in 500 μl PBS in the presence of 0.5% Triton X-100 at room temperature for 30 min. The beads were washed with the same buffer for four times. The bound Na+/K+ATPase was resolved on 10% SDS-PAGE and detected by Western blot. Reciprocal binding assay using GST-Na+/K+-ATPase constructs (5 μg) and purified Src lacking of first 85 amino acids (200 ng) or His-tagged Src constructs (100 ng) was done similarly. To test if native Na+/K+-ATPase binds Src, the above experiments were repeated in the absence of Triton X-100. To make the Na+/K+-ATPase/Src complex, 2-5 μg of the purified Na+/K+ATPase was incubated with 4.5 U of Src (˜10 ng) in PBS in the absence of Triton X-100 at room temperature for 30 min. The complex was either used for the experiments directly as indicated or collected by centrifugation at 100,000×g for 30 min.

[1] = target: T3, Na+/K+-ATPase/Src complex (Sus scrofa, UniProt P05024); test: Src pY418 phosphorylation of the Na+/K+-ATPase/Src complex (Western blot); format: biochemical; settings: 5 μg GST fusion preincubated with 2 μg Na+/K+-ATPase before adding Src (4.5 U)
T3 construct: Na+/K+-ATPase was purified from pig kidney outer medulla using the Jorgensen method; tissue Upstate Biotechnology (Src only); host or cells: pig kidney outer medulla (Na+/K+-ATPase)
Description: The Src kinase activity was assayed using a commercial kit (Haas et al., 2000). To determine how Na+/K+-ATPase affects Src kinase activity, the purified Src (4.5 U) was incubated with 5 μg of the purified Na+/K+-ATPase in the Src assay buffer for 30 min at room temperature. Afterward, both control Src or the Na+/K+-ATPase-bound Src were exposed to 10 μM ouabain and Src kinase activity was determined. In other experiments, the Src pY418 was measured by anti-pY418 antibody to indicate Src activation (Ma et al., 2000). To do so, the purified Src (4.5 U) was incubated with different amounts of the purified Na+/K+-ATPase or GST-Na+/K+ATPase constructs in phosphate-buffered saline (PBS) for 30 min at 37° C. Afterward, 2 mM ATP/Mg2+ was added. The reaction continued for 5 min at 37° C. and was stopped by addition of SDS sample buffer.
The purified Na+/K+-ATPase was solubilized in 1% Triton X-100 PBS and centrifuged at 100,000×g for 30 min. The supernatant was collected for the binding assay. GST-fusion proteins (5 μg) were conjugated on glutathione beads and incubated with the solubilized Na+/K+-ATPase in 500 μl PBS in the presence of 0.5% Triton X-100 at room temperature for 30 min. The beads were washed with the same buffer for four times. The bound Na+/K+ATPase was resolved on 10% SDS-PAGE and detected by Western blot. […]

Molecule | pulldown of Src from LLC-PK1 cell lysates (Src) | binding to the Na+/K+-ATPase (purified Na+/K+-ATPase) | Src pY418 in presence of Na+/K+-ATPase [1]
B1 | not | – | –
B2 | – | Binding | significantly increased Src pY418
B3 | – | Binding | –
